The text below walks through data of article PMC12670495 (Molecular Pharmaceutics, 2025).

What all share (details): both partners purified
For experiment [1], the target named is T1, Prostate-specific membrane antigen (PSMA), human (Homo sapiens, UniProt Q04609).
T1 construct: human FOLH1 (PSMA), UniProt Q04609; The methods of the multicycle SPR say only 'PSMA (R&D Systems)'; R&D Systems' recombinant human PSMA is, as far as recalled, the extracellular domain (about K44-A750) with a His tag; also called Human FOLH1; human PSMA; source: bought: R&D Systems (multicycle SPR)
The experiment is described as follows: SPR; Biacore T200, multicycle kinetics; antibody captured on a Protein G chip (~50 RU), PSMA as analyte 25 to 1.5625 nM in HBS-EP+, 35 μL/min, association 600 s, dissociation 2400 s; 1-to-1 binding model with global Rmax. (In SPR one partner is held on a chip, and binding of the other changes the refractive index at the surface.)

Experiment [2] concerns the target T2, mouse PSMA (Mus musculus, UniProt O35409).
T2 construct: mouse prostate-specific membrane antigen (PSMA), purified protein; also called PSMA (Mouse); murine PSMA
Kind of experiment: SPR; Biacore T200, single-cycle kinetics, 25 °C, HBS-EP+; antibody-DOTA captured on a Protein G chip (~50 RU); PSMA as analyte, three-point 2-fold dilution 12.5-50 nM, 40 uL/min; association 200 s, dissociation 1500 s; Langmuir 1:1 fit.
T2 sequence (O35409 whole entry): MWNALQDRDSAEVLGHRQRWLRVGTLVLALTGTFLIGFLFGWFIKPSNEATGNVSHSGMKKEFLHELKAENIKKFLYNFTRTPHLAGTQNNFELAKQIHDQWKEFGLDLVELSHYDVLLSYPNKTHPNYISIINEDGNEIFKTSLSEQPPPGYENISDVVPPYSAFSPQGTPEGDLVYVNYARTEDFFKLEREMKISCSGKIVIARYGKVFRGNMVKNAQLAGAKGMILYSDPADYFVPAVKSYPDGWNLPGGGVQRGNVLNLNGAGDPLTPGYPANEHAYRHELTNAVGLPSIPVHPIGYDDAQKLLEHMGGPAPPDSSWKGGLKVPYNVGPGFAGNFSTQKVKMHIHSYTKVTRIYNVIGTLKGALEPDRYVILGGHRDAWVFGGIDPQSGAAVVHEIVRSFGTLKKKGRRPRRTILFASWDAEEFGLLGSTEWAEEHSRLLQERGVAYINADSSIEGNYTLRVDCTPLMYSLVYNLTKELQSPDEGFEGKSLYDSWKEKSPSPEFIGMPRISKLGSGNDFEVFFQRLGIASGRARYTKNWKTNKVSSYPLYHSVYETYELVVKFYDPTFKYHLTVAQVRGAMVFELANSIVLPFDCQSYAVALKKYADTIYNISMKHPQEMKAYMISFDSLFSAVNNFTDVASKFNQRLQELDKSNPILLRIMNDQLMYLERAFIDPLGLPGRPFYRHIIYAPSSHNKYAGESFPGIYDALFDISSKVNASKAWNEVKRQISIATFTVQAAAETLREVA

Experiment [3] deals with T3, mouse PSMA (Mus musculus, UniProt O35409).
T3 construct: PSMA (Folh1) of mouse; also called murine PSMA
The experiment is described as follows: SPR; Biacore T200, single-cycle kinetics at 25 °C; DOTA-conjugated antibodies captured on a Protein G chip (~50 RU), PSMA as analyte 12.5 to 50 nM in HBS-EP+, 40 μL/min; Langmuir (1:1) model.
T3 sequence (O35409 whole entry): as above

A word on the Kd: it is a measure of binding affinity in units of concentration. A word on the koff: it is a measure of how fast the partners let go of each other. One may read the kon as the rate constant with which the complex forms. A lower kon goes with slow association.

B1: ANT4044 IgG1 (antibody, V domains shown)
VH: EVQLVQSGAEVKKPGASVKVSCKASGYTFTEYTIHWVRQAPGKGLEWIGNINPNNGGTTYNQKFEDRVTITVDKSTSTAYMELSSLRSEDTAVYYCAAGWNFDYWGQGTTVTVSS
VL: DIQMTQSPSTLSASVGDRVTITCKASQDVGTAVDWYQQKPGQAPKLLIYWASTRHTGVPDRFSGSGSGTDFTLTISRLQPEDFAVYYCQQYNSYPLTFGQGTKVDIK
notes: VH of the humanized antibody ANT4044 (derived from murine J591); IgG1 heavy chain constant region, unmodified; VK of the humanized antibody ANT4044; constant region of the light chain is not described; IgG1; also called unmodified IgG1; ANT4044 unmodified IgG1 construct; source: CHO cells, transiently transfected; purified (Protein A, preparative SEC); copies: 2 + 2
Take B1: in experiment [1], the Kd turned out to be 0.734 nM, the koff stood at 7.88e-05 s⁻¹ and the kon is 107000 M⁻¹ s⁻¹.

B2: ANT4044 IgG1 (H310A, H435Q) (antibody, V domains shown)
VH: EVQLVQSGAEVKKPGASVKVSCKASGYTFTEYTIHWVRQAPGKGLEWIGNINPNNGGTTYNQKFEDRVTITVDKSTSTAYMELSSLRSEDTAVYYCAAGWNFDYWGQGTTVTVSS
VL: DIQMTQSPSTLSASVGDRVTITCKASQDVGTAVDWYQQKPGQAPKLLIYWASTRHTGVPDRFSGSGSGTDFTLTISRLQPEDFAVYYCQQYNSYPLTFGQGTKVDIK
notes: VH of ANT4044, as the heavy chain of m1; IgG1 heavy chain constant region with H310A and H435Q; VK of ANT4044, as the light chain of m1; constant region of the light chain is not described, as the light chain of m1; IgG1; Lead construct; the introduction names 'this engineered PSMA antibody' TLX592 without saying which variant is meant; also called modified IgG1 (H310A, H435Q); PK-modified …
As to B2, in experiment [1], the Kd stood at 0.737 nM, the koff worked out at 7.48e-05 s⁻¹ and the kon was found to be 101000 M⁻¹ s⁻¹.

B3: ANT4044-DOTA (antibody, V domains shown)
VH: EVQLVQSGAEVKKPGASVKVSCKASGYTFTEYTIHWVRQAPGKGLEWIGNINPNNGGTTYNQKFEDRVTITVDKSTSTAYMELSSLRSEDTAVYYCAAGWNFDYWGQGTTVTVSS
VL: DIQMTQSPSTLSASVGDRVTITCKASQDVGTAVDWYQQKPGQAPKLLIYWASTRHTGVPDRFSGSGSGTDFTLTISRLQPEDFAVYYCQQYNSYPLTFGQGTKVDIK
Take B3: the binding result with mouse PSMA [2] is “no binding (tested: 12.5 to 50 nM)”.

B4: ANT4044-DOTA (antibody, V domains shown)
VH: EVQLVQSGAEVKKPGASVKVSCKASGYTFTEYTIHWVRQAPGKGLEWIGNINPNNGGTTYNQKFEDRVTITVDKSTSTAYMELSSLRSEDTAVYYCAAGWNFDYWGQGTTVTVSS
VL: DIQMTQSPSTLSASVGDRVTITCKASQDVGTAVDWYQQKPGQAPKLLIYWASTRHTGVPDRFSGSGSGTDFTLTISRLQPEDFAVYYCQQYNSYPLTFGQGTKVDIK
notes: VH of ANT4044, as the heavy chain of m1; VK of ANT4044, as the light chain of m1; constant region of the light chain is not described, as the light chain of m1; source: CHO cells, transiently transfected, purified; conjugated with NHS-DOTA; copies: 2 + 2
As to B4, the binding result in the experiment with mouse PSMA [3] was “no binding (tested: 12.5 to 50 nM tested)”.

B5: ANT4044 IgG4 (S228P, L235E, H310A, H435Q) (antibody, V domains shown)
VH: EVQLVQSGAEVKKPGASVKVSCKASGYTFTEYTIHWVRQAPGKGLEWIGNINPNNGGTTYNQKFEDRVTITVDKSTSTAYMELSSLRSEDTAVYYCAAGWNFDYWGQGTTVTVSS
VL: DIQMTQSPSTLSASVGDRVTITCKASQDVGTAVDWYQQKPGQAPKLLIYWASTRHTGVPDRFSGSGSGTDFTLTISRLQPEDFAVYYCQQYNSYPLTFGQGTKVDIK
notes: VH of ANT4044, as the heavy chain of m1; IgG4 heavy chain constant region with S228P, L235E, H310A and H435Q; VK of ANT4044, as the light chain of m1; constant region of the light chain is not described, as the light chain of m1; IgG4; also called modified IgG4; source: CHO cells, transiently transfected; purified (Protein G, preparative SEC); copies: 2 + 2
Regarding B5, in experiment [1], the Kd amounted to 0.743 nM, the koff was found to be 0.000104 s⁻¹ and the kon was found to be 139000 M⁻¹ s⁻¹.
